This assay addresses T1, SETD3 (Homo sapiens, UniProt Q86TU7).
T1 construct: GST (cleaved yes); made in house; host or cells: Escherichia coli BL21(DE3) CodonPlus
T1 sequence (Q86TU7 1-594): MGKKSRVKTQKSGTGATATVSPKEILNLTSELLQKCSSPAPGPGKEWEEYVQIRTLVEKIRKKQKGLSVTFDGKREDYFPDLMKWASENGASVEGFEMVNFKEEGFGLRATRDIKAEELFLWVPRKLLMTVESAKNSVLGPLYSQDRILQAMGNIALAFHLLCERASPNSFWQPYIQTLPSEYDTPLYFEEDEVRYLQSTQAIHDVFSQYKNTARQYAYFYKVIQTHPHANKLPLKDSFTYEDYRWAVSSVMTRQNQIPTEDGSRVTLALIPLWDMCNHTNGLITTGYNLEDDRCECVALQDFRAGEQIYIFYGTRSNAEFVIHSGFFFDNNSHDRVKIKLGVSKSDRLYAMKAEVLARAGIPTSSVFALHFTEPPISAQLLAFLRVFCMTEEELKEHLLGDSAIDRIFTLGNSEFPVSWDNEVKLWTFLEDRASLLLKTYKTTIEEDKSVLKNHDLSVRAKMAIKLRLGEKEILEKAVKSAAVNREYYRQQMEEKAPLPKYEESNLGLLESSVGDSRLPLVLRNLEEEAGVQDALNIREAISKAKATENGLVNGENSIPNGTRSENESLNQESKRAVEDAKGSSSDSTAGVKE
As to the kind of experiment: SETD3 activity time course under conditions optimized for H73(66-80) (Supplementary Fig. 3a). The settings on record: pH 8.0, room temperature; for CH3 transferred: [E]=0.18 µM, [SAM]=40 µM, [S]=20 µM. The assay is classed as biochemical. The procedure:
Recombinant human SETD3 (pXC2003) was expressed as a GST-fusion[22] in Escherichia coli BL21(DE3) CodonPlus^TM cells (Stratagene). The SETD3 mutants at residue 255 (N255A; pXC2093 and N255V; pXC2094) were generated with Q5 Site-Directed Mutagenesis Kit (New England Biolabs), confirmed by sequencing and the same protocol for expression and purification were followed. Briefly, the purification was conducted in a BIO-RAD NGC^TM system using a three-column chromatography of glutathione-sepharose, HiTrap Q-HP and Superdex 200. The GST tag was removed by PreScisson Protease (purified in-house). The purified SETD3 proteins at a concentration ~25–35 mg/ml were kept at −80 °C in storage buffer for future use [20 mM Tris (pH 8.0), 200 mM NaCl, 5% glycerol, and 0.5 mM tris (2-carboxyethyl) phosphine (TCEP)]. […]
conditions optimized for H73(66-80) (red line): [E]=0.18 µM, [SAM]=40 µM, [S]=20 µM, pH 8.0 at room temperature for indicated reaction time. b, SETD3 activity on H73(66-80) at two difference temperatures under the conditions of [E]=0.18 µM, [SAM]=40 µM, [SH7 3]=20 µM at pH 8. 0 for 20 min reaction. c, SETD3 activity on K73 (66-80 ) at room temperature (~22 °C) and 37 °C under the conditions of increased amounts of [E]=15 µM, [SAM]=100 µM and [S K73]=700 µM at pH 8.0 for overnight reaction. Data represent the mean ± SD of N number of independent determinations (N=2 in panels a and b and N=4 in panel c) performed in duplicate. […]

As for “K73(66–80): K73-containing (H73K) actin peptide, residues 66–80 (TLKYPIEKGIVTNWD; UniProt P60709 66-80, looked up, variant H73K)”, the CH3 transferred worked out at 0 µM (0 min, replicate 1); 0 µM (0 min, replicate 2); 0.00913 µM (10 min, replicate 1); 0.005151 µM (10 min, replicate 2); 0.005187 µM (20 min, replicate 1); 0.000604 µM (20 min, replicate 2). Besides, the CH3 transferred by setting is: (30 min, replicate 1) 0.002842 µM; (30 min, replicate 2) -0.00142 µM. In addition, the “SETD3 activity under conditions optimized for H73 peptide” value ([E] = 0.18 µM, [SAM] = 40 µM, [S] = 20 µM) was “no activity”.

(Values after publication PMC6684798, “Structural basis for the target specificity of actin histidine methyltransferase SETD3” (Nature Communications, 2019).)
